Reference: the supplement of paper PMC9876800

Tested on: peptide library, one residue held at a place counted from the S/T acceptor
Assay: relative phosphorylation of the sub-library (ratio to the mean residue at this position); higher = residue favoured
How it was run: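 Human or orthologue kinase constructs, purified and recombinant, were incubated under kinase-specific conditions in 384-well plates with biotinylated degenerate peptide sub-libraries. Each sub-library fixed one residue at one position around a central Ser/Thr. Incubations lasted 90 min with peptides at 50 μM and 50 μM ATP spiked with γ-32P-ATP, after which spots on streptavidin membranes were phosphorimaged and quantified by densitometry. Relative sub-library phosphorylation is a ratio to the mean residue at that position.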

PLK2, construct: aa57-360, human, sequence (Q9NYY3 57-360, looked up): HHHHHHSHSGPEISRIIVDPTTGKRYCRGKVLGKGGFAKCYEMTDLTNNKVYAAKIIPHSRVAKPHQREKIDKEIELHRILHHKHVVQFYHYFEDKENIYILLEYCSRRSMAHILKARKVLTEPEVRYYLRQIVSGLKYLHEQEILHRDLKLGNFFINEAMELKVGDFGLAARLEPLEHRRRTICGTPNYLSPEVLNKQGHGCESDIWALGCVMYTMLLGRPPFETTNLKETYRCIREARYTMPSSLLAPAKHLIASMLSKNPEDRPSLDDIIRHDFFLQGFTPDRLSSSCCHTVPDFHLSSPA
PIM2, construct: Full length with a 14aa C-terminal extension from Gateway cloning, human, sequence (Q9P1W9 whole entry, looked up): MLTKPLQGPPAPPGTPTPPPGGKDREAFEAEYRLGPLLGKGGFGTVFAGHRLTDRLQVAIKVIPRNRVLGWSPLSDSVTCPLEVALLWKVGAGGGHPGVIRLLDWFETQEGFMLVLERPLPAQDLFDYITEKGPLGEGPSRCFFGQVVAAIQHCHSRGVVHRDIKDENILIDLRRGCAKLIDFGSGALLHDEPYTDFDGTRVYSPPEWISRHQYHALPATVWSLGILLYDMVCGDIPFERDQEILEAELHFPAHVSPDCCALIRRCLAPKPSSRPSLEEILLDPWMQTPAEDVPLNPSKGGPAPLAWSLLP

PIM2, construct: Full length with a 14aa C-terminal extension from Gateway cloning, human (from UniProt Q9P1W9)
relative phosphorylation
Details | at +1 | at +2 | at +3 | at +4 | at -1 | at -2 | at -3 | at -4 | at -5
A fixed | 1.17 | 0.889 | 0.802 | 0.851 | 0.852 | 0.568 | 0.578 | 0.935 | 0.695
D fixed | 0.638 | 0.729 | 0.859 | 0.833 | 0.593 | 0.32 | 0.269 | 0.497 | 0.413
E fixed | 0.834 | 0.713 | 0.752 | 0.764 | 0.587 | 0.343 | 0.295 | 0.666 | 0.413
F fixed | 0.653 | 0.75 | 0.909 | 0.874 | 0.887 | 0.911 | 0.388 | 0.776 | 0.547
G fixed | 3.18 | 0.978 | 0.99 | 1.08 | 0.814 | 0.418 | 0.43 | 0.891 | 0.789
H fixed | 0.871 | 1.48 | 1.31 | 1.04 | 1.16 | 2.64 | 0.78 | 1.01 | 1.01
I fixed | 0.723 | 0.606 | 0.709 | 0.841 | 0.699 | 0.541 | 0.366 | 0.837 | 0.588
K fixed | 1.14 | 1.33 | 1.24 | 1.28 | 1.33 | 1.7 | 1.91 | 1.9 | 2.91
L fixed | 0.663 | 0.664 | 0.721 | 0.793 | 0.912 | 0.594 | 0.381 | 0.79 | 0.608
M fixed | 0.861 | 0.71 | 0.783 | 0.845 | 0.921 | 0.649 | 0.397 | 0.985 | 0.6
N fixed | 1.11 | 1.07 | 0.958 | 1.11 | 1.18 | 1.04 | 0.48 | 0.988 | 0.728
P fixed | 0.727 | 1.13 | 1.04 | 1.3 | 1.86 | 0.524 | 0.453 | 0.755 | 0.791
Q fixed | 1.04 | 1.02 | 1.1 | 1.05 | 0.875 | 0.787 | 0.591 | 0.948 | 0.807
R fixed | 1.34 | 2.57 | 2.27 | 1.62 | 1.55 | 3.21 | 8.41 | 2.6 | 4.14
V fixed | 0.765 | 0.65 | 0.695 | 0.793 | 0.871 | 0.571 | 0.405 | 0.906 | 0.642
W fixed | 0.626 | 0.867 | 0.955 | 1.05 | 0.701 | 1.07 | 0.475 | 0.738 | 0.576
Y fixed | 0.66 | 0.848 | 0.923 | 0.885 | 1.2 | 1.11 | 0.395 | 0.777 | 0.741
pThr fixed | 0.857 | 0.654 | 0.668 | 0.888 | 0.379 | 0.35 | 0.342 | 0.632 | 0.471
pTyr fixed | 0.608 | 0.69 | 0.846 | 0.748 | 0.862 | 0.62 | 0.325 | 0.545 | 0.522

PLK2, construct: aa57-360, human (from UniProt Q9NYY3)
relative phosphorylation
Details | at +1 | at +2 | at +3 | at +4 | at -1 | at -2 | at -3 | at -4 | at -5
A fixed | 0.569 | 0.927 | 0.69 | 0.793 | 0.879 | 0.734 | 0.559 | 0.825 | 0.975
D fixed | 0.52 | 2.18 | 2.27 | 1.98 | 2.51 | 3.13 | 1.77 | 1.74 | 1.46
E fixed | 0.87 | 2.23 | 2.59 | 2.2 | 1.61 | 2.35 | 7.3 | 2.19 | 1.53
F fixed | 3.75 | 0.919 | 0.861 | 0.916 | 0.658 | 0.508 | 0.751 | 1.06 | 1.37
G fixed | 0.529 | 0.54 | 0.81 | 0.842 | 0.587 | 0.655 | 0.583 | 0.9 | 1.25
H fixed | 0.628 | 0.999 | 0.914 | 0.988 | 1.16 | 0.8 | 0.625 | 0.888 | 1.11
I fixed | 1.3 | 0.971 | 0.835 | 0.974 | 0.697 | 0.558 | 0.318 | 0.888 | 0.806
K fixed | 0.452 | 0.227 | 0.358 | 0.442 | 0.634 | 0.3 | 0.292 | 0.638 | 0.722
L fixed | 1.02 | 0.707 | 0.874 | 0.982 | 0.701 | 1.23 | 0.608 | 1.11 | 0.844
M fixed | 1.78 | 1.01 | 0.85 | 0.869 | 0.874 | 1.24 | 0.763 | 0.866 | 0.842
N fixed | 0.567 | 0.99 | 1.05 | 0.866 | 1.24 | 1.88 | 0.687 | 1 | 0.955
P fixed | 0.159 | 0.532 | 0.609 | 1.07 | 1.46 | 0.736 | 0.482 | 0.928 | 0.955
Q fixed | 1.2 | 0.752 | 0.987 | 0.877 | 0.833 | 0.883 | 0.717 | 0.846 | 0.692
R fixed | 0.691 | 0.438 | 0.396 | 0.441 | 0.79 | 0.465 | 0.333 | 0.609 | 0.694
V fixed | 0.994 | 0.841 | 0.765 | 0.554 | 0.899 | 0.391 | 0.269 | 0.775 | 0.757
W fixed | 0.683 | 1.31 | 1.08 | 1.24 | 0.469 | 0.458 | 0.48 | 0.907 | 0.977
Y fixed | 1.28 | 1.44 | 1.05 | 0.968 | 0.997 | 0.676 | 0.459 | 0.845 | 1.06
pThr fixed | 1.33 | 2.29 | 2.39 | 3.26 | 1.07 | 1.08 | 1.05 | 1.68 | 1.04
pTyr fixed | 1.4 | 11 | 2.89 | 3.61 | 4.55 | 0.912 | 1.2 | 1.6 | 1.63

PRKCD, construct: Full length, human (from UniProt Q05655)
relative phosphorylation
Details | at +1 | at +2 | at +3 | at +4 | at -1 | at -2 | at -3 | at -4 | at -5
A fixed | 0.496 | 0.437 | 0.73 | 0.842 | 0.91 | 0.9 | 0.795 | 1.04 | 1.04
D fixed | 0.253 | 0.525 | 0.696 | 1.03 | 0.598 | 0.587 | 0.699 | 0.932 | 1.2
E fixed | 0.309 | 0.317 | 0.608 | 0.63 | 0.465 | 0.531 | 0.579 | 0.972 | 0.903
F fixed | 1.51 | 0.438 | 0.642 | 0.4 | 0.549 | 0.621 | 0.594 | 0.703 | 0.815
G fixed | 0.553 | 0.459 | 1.11 | 1.28 | 1.64 | 1.2 | 0.977 | 1.36 | 1.18
H fixed | 0.803 | 1.39 | 0.871 | 1.23 | 0.961 | 1.13 | 1.17 | 1.14 | 1.07
I fixed | 1.65 | 0.64 | 0.781 | 0.695 | 0.355 | 0.466 | 0.401 | 0.617 | 0.809
K fixed | 1.74 | 3.33 | 2.15 | 2.05 | 2.3 | 1.9 | 1.91 | 1.55 | 1.48
L fixed | 1.21 | 0.564 | 0.846 | 0.757 | 0.658 | 0.506 | 0.464 | 0.608 | 0.78
M fixed | 1.58 | 0.69 | 0.801 | 0.731 | 0.852 | 0.677 | 0.576 | 0.807 | 0.657
N fixed | 0.685 | 1 | 1.04 | 1.13 | 1.38 | 1.22 | 1.07 | 1.1 | 0.932
P fixed | 0.343 | 0.487 | 0.68 | 1.54 | 1.29 | 0.835 | 1.12 | 1.18 | 1.17
Q fixed | 1.18 | 0.93 | 1.04 | 1.19 | 1.35 | 1.23 | 1.01 | 0.979 | 0.868
R fixed | 1.6 | 3.33 | 2.03 | 1.48 | 1.74 | 3.16 | 3.86 | 1.58 | 1.65
V fixed | 1.39 | 0.648 | 0.742 | 0.65 | 0.583 | 0.522 | 0.406 | 0.691 | 0.769
W fixed | 0.743 | 0.741 | 1.12 | 0.746 | 0.527 | 0.806 | 0.658 | 1.1 | 0.993
Y fixed | 0.961 | 1.07 | 1.11 | 0.625 | 0.834 | 0.713 | 0.707 | 0.638 | 0.685
pThr fixed | 0.685 | 0.458 | 0.52 | 0.675 | 0.341 | 0.563 | 0.624 | 0.713 | 0.644
pTyr fixed | 0.469 | 0.662 | 0.56 | 0.396 | 0.465 | 0.576 | 0.541 | 0.524 | 0.673
